Residue numbers refer to the chain shown, from its start. A value given as a limit tells only on which side of the number the result lay.

The target in one assay is T1, VTG.
T1 chain: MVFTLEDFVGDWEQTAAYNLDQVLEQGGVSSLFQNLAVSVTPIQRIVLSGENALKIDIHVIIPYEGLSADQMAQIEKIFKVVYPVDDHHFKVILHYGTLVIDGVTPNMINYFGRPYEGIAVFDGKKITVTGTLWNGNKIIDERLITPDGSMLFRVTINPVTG
Description: luminescence complementation. Particulars: chains peptide; modification not given.

The next assay concerns the target T2, ATG.
T2 chain: T1 chain with V160A
Briefly: luminescence complementation. Particulars: chains peptide; modification not given.

Assay [1] deals with T3, NLpoly 5P.
T3 chain: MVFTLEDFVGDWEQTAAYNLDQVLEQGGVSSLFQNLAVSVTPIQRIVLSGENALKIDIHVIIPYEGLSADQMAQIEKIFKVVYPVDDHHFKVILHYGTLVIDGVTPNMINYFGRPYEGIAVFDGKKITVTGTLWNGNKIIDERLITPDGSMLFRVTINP
Description: luminescence complementation. The conditions noted are these: chains peptide; modification not given.

For the next assay, the target named is T4, GTA.
T4 chain: T1 chain with V160G, G162A
Description: luminescence complementation. Particulars: chains peptide; modification not given.

For the next assay, the target named is VT. Description: luminescence complementation. The conditions noted are these: chains peptide; modification not given.
In a further assay the target is VA. Briefly: luminescence complementation. The conditions noted are these: chains peptide; modification not given.
The target in another assay is AA. Description: luminescence complementation. The conditions noted are these: chains peptide; modification not given.
Assay [2] has as its target T5, NLpoly11S.
T5 chain: T3 chain with F33L, L48R, K77E, I78V, H95P, I109L, P159S
Description: luminescence complementation titration (E. coli lysate NLpoly, synthetic NLpep), one site-specific binding fit.

In assay [3] the target is T3, NLpoly 5P. Description: luminescence complementation; HeLa lysate. The conditions noted are these: chains peptide; modification not given.
Substrate in assay [4]: CP Nluc
Briefly: cell-based or functional assay.

For assay [5], the target named is T5, NLpoly11S. Description: luminescence complementation titration, one-site specific binding. Particulars: chains peptide; modification not given.
Assay [6] deals with T5, NLpoly11S. The assay is described as above. The conditions noted are these: chains peptide; modification not given.
For assay [7], the target named is T5, NLpoly11S. The assay is described as above. The conditions noted are these: chains peptide; modification not given.

Turning to GWRLFKKISN [NLpep82], the Kd amounted to 276 nM with VTG, 230 nM in the assay with ATG, 215 nM in the assay with NLpoly 5P [1] and 254 nM in the assay with GTA.
SGWRLFKKISN [NLpep81]: the Kd with VT came out at 137 nM; with NLpoly 5P [1], 110 nM; with VA, 132 nM; with AA, 115 nM.
In the assay with NLpoly11S [2], VSGWRLFKKISN [NLpep80] showed a Kd of less than 1 nM and a fold improved affinity over NLpolyWT:NLpepWT of 10000 fold. In the assay with NLpoly 5P [3], this molecule showed a dissociation constant (Kd) of 1 nM.
Take VSGWALFKKIS (modifications not checked) [Ala-162]: in [4], the inhibition of the luminescence generated by CP Nluc was greater than 2 logs.
In the case of NVSGWRLFKKISN [NLpep78], the results for the Kd in the assay with NLpoly11S [5] and in the assay with NLpoly11S [6] were 2.39 nM and 9.56 nM, respectively.
NVTGYRLFKKISN [NLpep79]: the Kd with NLpoly11S [7] amounted to 13.1 nM; in the assay with NLpoly11S [5], 20.3 nM.
Regarding VSGWQLFKKIS (modifications not checked) [Gln-162], the inhibition of the luminescence generated by CP Nluc in assay [4] was greater than 1 log.
For VSGWRLFKKIS (modifications not checked) [NLpep86], in the assay with NLpoly11S [2], the Kd is less than 1 nM and the fold improved affinity over NLpolyWT:NLpepWT stood at 10000 fold.

Values taken from US20200292534A1.
